Laboratory results from article PMC11237593, “Human coronavirus OC43 nanobody neutralizes virus and protects mice from infection” (Journal of Virology, 2024).
Positions count from the first letter of the chain named.

T1: OC43 S1B+C (S1B and S1C domains of the hCoV-OC43 spike glycoprotein) (human coronavirus OC43, UniProt P36334 321-675)
T1 construct: also called recombinant OC43 S1B+C; recombinant OC43 protein; source: Expi293F, transfected, purified from supernatant (Ni-NTA IMAC, SEC); not shown: His6, C-terminal, cleaved
T1 sequence (looked up): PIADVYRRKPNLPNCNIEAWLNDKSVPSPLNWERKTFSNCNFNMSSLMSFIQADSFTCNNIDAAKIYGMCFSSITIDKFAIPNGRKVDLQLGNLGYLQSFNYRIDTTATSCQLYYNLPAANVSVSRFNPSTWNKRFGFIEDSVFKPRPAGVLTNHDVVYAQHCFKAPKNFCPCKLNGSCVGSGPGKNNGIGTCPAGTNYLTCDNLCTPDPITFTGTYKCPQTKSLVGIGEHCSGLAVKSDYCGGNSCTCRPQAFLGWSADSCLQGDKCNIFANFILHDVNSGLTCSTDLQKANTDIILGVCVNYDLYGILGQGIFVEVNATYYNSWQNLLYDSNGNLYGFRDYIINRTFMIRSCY

B1: WNb 289 (VHH)
VHH: QVQLQESGGGLVQAGGSLRLSCAASGRTFSDYAMGWFRQAPGKEREFVATISWSGGTTYYADSVKGRFTISRDNAKNTVYLQMNSLKPEDTAVYYCAAVMDLGMLAADGYEYDYWGQGTQVTVSS
B2: WNb 285 (VHH)
VHH: QVQLQESGGGLVQAGGSLRLSCAASGRTFSDYAMGWFRQAPGKEREFVAAISWSGGTTYYADSVKGRFTISRDNAKNTVYLQMNSLTPEDTAVYYCAADYDYGWGRVRVSEYDYWGQGTQVTVSS
B3: WNb 291 (VHH)
VHH: B2 VHH with D31N, A33F, T87K, D99N, Y100T, W104M, R106F, V109A, S110Y
B4: WNb 293 (VHH)
VHH: QVQLQESGGGSVQAGDSLRLSCVASGRTFSSYALGWFRRAPGKEREFVAAISWSGGTTYYADSVKGRFTISRDNAKNTVYLQMNSLKPEDTAVYYCAALWDGGSWYPEGLSDFGSWGQGTQVTVSS
B5: WNb 294 (VHH)
VHH: B4 VHH with S11L, D16G, V23A, L34M, R39Q, A61G, L99Q, W100G, Y106F, S111A
B6: WNb 280 (VHH)
VHH: QVQLQESGGGLVQAGGSLRLSCAASGRTFSNYFMGWFRQAPGKEREFVAAISWSGGSTYYTDSVKGRFTISRDNAKNTVYLQMNSLKPEDTAVYYCAGGLDMGWSRVNLGEYDYWGQGTQVTVSS
B7: WNb 279 (VHH)
VHH: B6 VHH with A14P, N31D, S52T, N108A
B8: WNb 287 (VHH)
VHH: QLQESGGGLVQPGGSLRLSCAASGRTFSFSDYAMGWFRQAPGKEREFVASISWSGGTTYYADSVKGRFTISRDNAKNTVYLQMNSLKPEDTAVYYCAAEIDRGLLLHAVYEYDYWGQGTQVTVSS
B9: WNb 281 (VHH)
VHH: QVQLQESGGGLVQAGGSLRLSCAASGRTFSDYFMGWFRQAPGKEREFVTAISWSGGSTYYADSVKGRFTISRDNAKNTVFLQMNSLKPEDTAVYYCAAALDEGWARVAGPEYDYWGQGTQVTVSS
B10: WNb 288 (VHH)
VHH: B2 VHH with A33F, T57S, F68S, T87K, Y100H, Y102R, G105A, V107L, V109L, S110A
B11: WNb 282 (VHH)
VHH: QVQLQESGGGLVQAGDSLRLSCAASGRTFSDYFMGWFRQAPGKEREFVASISWSGGTTYYADSVKGRFTISRDNAKNTVYLQMNRVKSEDTAVYYCAAARDMGWGRTGENEYDYWGQGTQVTVSS
B12: WNb 276 (VHH)
VHH: QVQLQESGGGLVQSGGSLRLSCAASGFTFSNYGMMWVRQAPGKGVEWVSRIDSDGTITLYKDSVKGRFTISRDNAKNMLYLQMESLKPEDTALYYCIKVMDWVPGRAPPFRGQGTQVTVSS
B13: WNb 299 (VHH)
VHH: QVQLQESGGGWVQPGGSLRLSCAASGFTFSNYAMGWFRQAPGKEREFVATISWSGGTTVYADSVKGRFTISRDNAKNTVYLQMNSLKPEDTAVYYCAAASDYGMVQMSDYEYDYWGQGTQVTVSS
B14: WNb 286 (VHH)
VHH: QVQLQESGGGLVQAGGSLRLSCAASGRTFSSYAMGWFHQAPGKEREFVASISWSGGTTYYADSVKGRFTISRDNAKNTVYLQMNSLKPEDTAVYYCAAAVDYGLGLYRVGEYDSWGQGTQVTVSS
B15: WNb 297 (VHH)
VHH: QVQLQESGGGSVQAGGSLRLSCAASGRTFSDYAMGWFRQAPGKEREFVASISWSGGTTYYADSVKGRFTISRDNAKNTVYLQMNSLKPEDTAVYYCAADTDYGMGLITVPDFGSWGQGTQVTVSS
B16: WNb 298 (VHH)
VHH: B15 VHH with S11L, A14P, A33F, D99E, T100I, M104L, I107H, T108A, V109A, P110A
B17: WNb 284 (VHH)
VHH: QVQLQESGGGLVQAGGPLRLSCAASGRTFSDYFMGWFRQAPGMEREFVASISWSGGTTYYADSVKGRFTISRDNAKNTVYLQMNSLKPEDTAVYYCAAAIDYGLGLTVEYEYDYWGQGTQVTVSS
B18: WNb 278 (VHH)
VHH: B17 VHH with P17S, A75T, A98T
B19: WNb 296 (VHH)
VHH: B17 VHH with P17S, M43K, K76N, E89V, A99V, I100A, V108T, E109S
B20: WNb 292 (VHH)
VHH: B2 VHH with G16A, T87K, D99N, Y100T, W104L, R106L, V109A, S110Y
B21: WNbFc 293 (Fc fusion)
chain: B4 VHH
notes: also called WNb 293-Fc; WNb 293-Fc fusion; source: Expi293F, transfected, purified from supernatant (MabSelect Prism A, SEC)
B22: WNbFc 294 (Fc fusion)
chain: B4 VHH with S11L, D16G, V23A, L34M, R39Q, A61G, L99Q, W100G, Y106F, S111A
notes: source: Expi293F, transfected, purified from supernatant (MabSelect Prism A, SEC)

Molecular target: T1, OC43 S1B+C (S1B and S1C domains of the …)
Assay: BLI
Conditions: both partners purified

| Binder | Kd [nM] | koff [s⁻¹] | kon [M⁻¹ s⁻¹] |
| --- | --- | --- | --- |
| B1 | 4.73 | 0.000629 | 132000 |
| B2 | 4.23 | 0.000447 | 106000 |
| B3 | 11.7 | 0.000527 | 45000 |
| B4 | 4.6 | 0.000417 | 91000 |
| B5 | 26 | 0.00106 | 41000 |
| B6 | 22.9 | 0.00161 | 70000 |
| B7 | 149 | 0.0086 | 58000 |
| B8 | 11.2 | 0.000933 | 84000 |
| B9 | 1.55 | 0.000183 | 118000 |
| B10 | 19.6 | 0.00124 | 64000 |
| B11 | 2.46 | 0.000195 | 79000 |
| B12 | 6.46 | 0.000518 | 82000 |
| B13 | 9.9 | 0.00103 | 104000 |
| B14 | 58.8 | 0.00245 | 42000 |
| B15 | 21.4 | 0.00199 | 93000 |
| B16 | 8.94 | 0.000987 | 111000 |
| B17 | 4.01 | 0.000363 | 91000 |
| B18 | 5.93 | 0.0004 | 68000 |
| B19 | 15.3 | 0.000786 | 51000 |
| B20 | 15.6 | 0.00116 | 75000 |

Molecular target: T1, OC43 S1B+C (S1B and S1C domains of the …)
Assay: not given
Conditions: both partners purified

| Binder | Kd [nM] | koff [s⁻¹] | kon [M⁻¹ s⁻¹] |
| --- | --- | --- | --- |
| B21 | 7.51 | 0.000758 | 101000 |
| B22 | 36.9 | 0.00164 | 45000 |
